Assay results: publication PMC9987972, “Interaction of the periplasmic chaperone SurA with the inner membrane protein secretion (SEC) machinery” (Biochemical Journal, 2023)

B1: SurA, P0ABZ6 21-428 (natural protein)
chain: APQVVDKVAAVVNNGVVLESDVDGLMQSVKLNAAQARQQLPDDATLRHQIMERLIMDQIILQMGQKMGVKISDEQLDQAIANIAKQNNMTLDQMRSRLAYDGLNYNTYRNQIRKEMIISEVRNNEVRRRITILPQEVESLAQQVGNQNDASTELNLSHILIPLPENPTSDQVNEAESQARAIVDQARNGADFGKLAIAHSADQQALNGGQMGWGRIQELPGIFAQALSTAKKGDIVGPIRSGVGFHILKVNDLRGESKNISVTEVHARHILLKPSPIMTDEQARVKLEQIAADIKSGKTTFAAAAKEFSQDPGSANQGGDLGWATPDIFDPAFRDALTRLNKGQMSAPVHSSFGWHLIELLDTRNVDKTDAAQKDRAYRMLMNRKFSEEAASWMQEQRASAYVKILSN
B2: SurA–OmpA complex (complex)
chain 1: B1 chain
chain 2: APKDNTWYTGAKLGWSQYHDTGFINNNGPTHENQLGAGAFGGYQVNPYVGFEMGYDWLGRMPYKGSVENGAYKAQGVQLTAKLGYPITDDLDIYTRLGGMVWRADTKSNVYGKNHDTGVSPVFAGGVEYAITPEIATRLEYQWTNNIGDAHTIGTRPDNGMLSLGVSYRFGQGEAAPVVAPAPAPAPEVQTKHFTLKSDVLFNFNKATLKPEGQAALDQLYSQLSNLDPKDGSVVVLGYTDRIGSDAYNQGLSERRAQSVVDYLISKGIPADKISARGMGESNPVTGNTCDNVKQRAALIDCLAPDRRVEIEVKGIKDVVTQPQA
notes: SurA, periplasmic chaperone, E. coli; as the chain of m2; OmpA, outer membrane protein, from pET11a-ompA; also called substrate-engaged SurA; occupied chaperone; source: E. coli BL21(DE3), made separately; OmpA pellet in 6 M urea mixed with SurA supernatant, urea dialysed away, purified (HisTrap, HiTrap Q; S200 SEC for the size exclusion experiments)

Experiments:
SurA (E. coli), P0ABZ6 = biological target: T1, SurA (E. coli), P0ABZ6; test: native gel or EMSA; NativePAGE Bis-Tris 3–12%; HTL 3.8 µM with SurA or SurA:OmpA at 1:3 molar ratio, or each alone, in TS130G (20 mM Tris-HCl pH ≈ 8, 130 mM NaCl, 10% glycerol) + 0.01% DDM-CL, 30 min at 30°C; bands excised and analysed by SDS–PAGE with silver staining; details: remark: other sources report otherwise
T1 chain: B1 chain

[1] = biological target: the molecule itself; test: as above

| Binder | stoichiometry N (SurA (E. coli), P0ABZ6) | stoichiometry N [1] |
| --- | --- | --- |
| B1 | 2 | – |
| B2 | – | 2 |
